# Laboratory results from US9127076B2, “Modified peptides having toxin-enhancing effects” (The University of Georgia Research Foundation, dated 2015).
# B1: Sf-CR10-12(PS) (receptor)
# chain: MAFLDCLSATDEDGLHAGCVTFSIAGNDEAAEYFNVLNDGDNSAMLTLSQALPAGVQQFELVISATDGGTEPGPSSTDCSVTVVFVMTQGDPVFDDNAASVSFVEHEAGMSESFQLPQADDPSNYACMDDCHTIYYSIVDGNDGDHFAVEPETNVIYLLSPLDSSQQEQYSVVVAASNTPGGTSTLSSSLLTVTIGVSEANPSPIFESEFYTAGVLHTDSIHSELVYLAASHSEGLPIVYSIDQETMSIDESLQTVVEDAFDINSATGVISLNFQPTSVMHGSFDFEVVASDTCGASDCASVSIYMISTRVRVHHHHHH
# B2: Sf-CR10-12 (receptor)
# chain: MKFLDRLSATDEDGLHAGRVTFSIAGNDEAAEYFNVLNDGDNSAMLTLKQALPAGVQQFELVIRATDGGTEPGPRSTDCSVTVVFVMTQGDPVFDDNAASVRFVEKEAGMSEKFQLPQADDPKNYRCMDDCHTIYYSIVDGNDGDHFAVEPETNVIYLLKPLDRSQQEQYRVVVAASNTPGGTSTLSSSLLTVTIGVREANPRPIFESEFYTAGVLHTDSIHKELVYLAAKHSEGLPIVYSIDQETMKIDESLQTVVEDAFDINSATGVISLNFQPTSVMHGSFDFEVVASDTRGASDRAKVSIYMISTRVRVHHHHHH
# B3: Ms-CR10-12(PS) (receptor)
# chain: MHLECISATDPDGLHAGVVTFQVVGDEESQAYFQVVNDGANLGSLSLLQAVPEEIAEFSITICATDQGTDPGPLSTDMTFAVVFVPTQGEPAFASSEHAVAFIEASAGMEESHQLPLAQDIANHLCEDDCHSIYYAIIDGNSEGHFGLDPVANALFLSAELIAEQSASHTLQVAASNSPDGGIPLPASILTVTVTVAEADPAPVFMAELYTAGISTADSIGCELLALHATQSEGAAITYAIDYDTMVVDPSLEAVCQSAFVLNAQTGVLTLNIQPTATMHGLFNFEVTATDTAGAQDRTDVTVYVVSSQNRLEHHHHHH
# Molecular target: Cry1Fa toxin (Bacillus thuringiensis, UniProt Q03746)
# Assay: cell-based or functional assay
row,Binder,"larval mortality and larval weight, diet surface bioassay, neonate S. frugiperda, 0.1 µg/cm^2 Cry1Fa"
1,B1,~4 fold
2,B2,~2 fold
3,B3,< 2 fold
